Results: patent US5807698

Target: human p33 CDK2 (human) (UniProt P24941)

human cyclin E, sequence (P24864 16-410 limits assumed): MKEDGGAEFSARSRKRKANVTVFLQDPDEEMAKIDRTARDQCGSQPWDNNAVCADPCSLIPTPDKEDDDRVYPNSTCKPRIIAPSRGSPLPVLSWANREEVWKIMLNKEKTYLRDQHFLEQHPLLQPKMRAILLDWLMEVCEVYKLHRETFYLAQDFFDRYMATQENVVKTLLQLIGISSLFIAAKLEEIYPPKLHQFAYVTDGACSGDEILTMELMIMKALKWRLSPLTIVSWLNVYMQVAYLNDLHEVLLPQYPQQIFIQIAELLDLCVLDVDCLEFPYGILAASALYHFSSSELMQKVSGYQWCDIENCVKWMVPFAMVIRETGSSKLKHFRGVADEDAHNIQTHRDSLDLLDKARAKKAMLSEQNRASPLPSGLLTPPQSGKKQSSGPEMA

Substance: human cyclin E
- CDK2 histone H1 kinase activity in G1 cell extract: 22 fold
